Experimental data taken from the supplement of paper PMC10567573.

Assay: protein stability index of a GFP-peptide fusion (GPS, HEK-293T) (PSI 1-6); higher = more stable
Conditions: c terminus: native
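Also: lentivirally expressed fusion library, cells FACS-sorted into six equal-sized GFP/DsRed ratio bins, PSI computed from sequencing read fractions per bin weighted by bin number.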

CQPISFSGFGAEDDDLGGLGLGPP [POLD2 addP]
protein stability index (parent: NP_006221.1): 4.45

DGWIRVSSDNVADLHEKYSGSTPP [PSMB5 addP]
protein stability index (parent: NP_002788.1): 4.78

LPALFTDLYSQEITAEEAREALPP [SNF8 addP]
protein stability index (parent: NP_009172.2): 2.03
